Source: US20190144565A1 (UCB, published 2019)

T1: sFcεRIα, the extracellular portion of the alpha chain of the human high affinity IgE receptor (human, UniProt P12319 26-205)
T1 construct: extracellular domain; also called sFcERIa; Alexa488 labelled sFcεRIα
T1 sequence (looked up): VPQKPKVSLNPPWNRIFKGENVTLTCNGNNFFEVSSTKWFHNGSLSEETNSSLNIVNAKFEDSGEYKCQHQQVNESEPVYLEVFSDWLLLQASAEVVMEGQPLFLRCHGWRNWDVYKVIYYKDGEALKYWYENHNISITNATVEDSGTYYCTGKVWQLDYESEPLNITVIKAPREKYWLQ

B1: sFcεRIα-IgG4-Fc fusion protein (α-γ) (Fc fusion, UniProt P12319 26-205, looked up)
chain: VPQKPKVSLNPPWNRIFKGENVTLTCNGNNFFEVSSTKWFHNGSLSEETNSSLNIVNAKFEDSGEYKCQHQQVNESEPVYLEVFSDWLLLQASAEVVMEGQPLFLRCHGWRNWDVYKVIYYKDGEALKYWYENHNISITNATVEDSGTYYCTGKVWQLDYESEPLNITVIKAPREKYWLQ
notes: extracellular domain; also called αγ-fusion protein; Alexa Fluor 647 labeled sFcεRIα-IgG4-Fc; not shown: IgG4 Fc
B2: IgE-Fc according to Seq. ID No. 108 (V224-K547) with the mutations N265Q & N371Q (other)
chain: VASRDFTPPTVKILQSSCDGGGHFPPTIQLLCLVSGYTPGTIQITWLEDGQVMDVDLSTASTTQEGELASTQSELTLSQKHWLSDRTYTCQVTYQGHTFEDSTKKCADSNPRGVSAYLSRPSPFDLFIRKSPTITCLVVDLAPSKGTVQLTWSRASGKPVNHSTRKEEKQRNGTLTVTSTLPVGTRDWIEGETYQCRVTHPHLPRALMRSTTKTSGPRAAPEVYAFATPEWPGSRDKRTLACLIQNFMPEDISVQWLHNEVQLPDARHSTTQPRKTKGSGFFVFSRLEVTRAEWEQKDEFICRAVHEAASPSQTVQRAVSVNPGK
notes: also called IgE-Fc (N265Q, N371Q); terbium labeled IgE-Fc

Key:
[1] = target: B2; assay: TR-FRET; labelled αγ-fusion protein titrated on labelled IgE-Fc, no omalizumab Fab3
[2] = target: T1, sFcεRIα, the extracellular portion of …; assay: SPR; IgE-Fc captured on immobilised sFcεRIα
[3] = target: B1; assay: TR-FRET; labelled αγ-fusion protein titrated on labelled IgE-Fc, no omalizumab Fab3

| EC50 (read off the curve) [1] [nM] | binding result [2] | binding result [3] | Binder |
| --- | --- | --- | --- |
| ~1 |  |  | B1 |
|  | binds | binds | B2 |
